Here are results for 1 molecule from patent US20050113256A1, “Methods of reducing the nicotine content of tobacco plants and tobacco plants obtained thereby” (priority 2003, published 2005).

For the test, the system named is tobacco leaves (Nicotiana tabacum). In words: Treatment of individual tobacco leaves with test solutions, nicotine reduction. It counts as in vivo. The settings on record: incubated for about 3 days.

B1: Inactive GOX: heat treated glucose oxidase, rendered substantially inactive due to the application of heat (protein, UniProt P13006 17-605, looked up)
Glucose oxidase: LPHYIRSNGIEASLLTDPKDVSGRTVDYIIAGGGLTGLTTAARLTENPNISVLVIESGSYESDRGPIIEDLNAYGDIFGSSVDHAYETVELATNNQTALIRSGNGLGGSTLVNGGTWTRPHKAQVDSWETVFGNEGWNWDNVAAYSLQAERARAPNAKQIAAGHYFNASCHGVNGTVHAGPRDTGDDYSPIVKALMSAVEDRGVPTKKDFGCGDPHGVSMFPNTLHEDQVRSDAAREWLLPNYQRPNLQVLTGQYVGKVLLSQNGTTPRAVGVEFGTHKGNTHNVYAKHEVLLAAGSAVSPTILEYSGIGMKSILEPLGIDTVVDLPVGLNLQDQTTATVRSRITSAGAGQGQAAWFATFNETFGDYSEKAHELLNTKLEQWAEEAVARGGFHNTTALLIQYENYRDWIVNHNVAYSELFLDTAGVASFDVWDLLPFTRGYVHILDKDPYLHHFAYDPQYFLNELDLLGQAAATQLARNISNSGAMQTYFAGETIPGDNLAYDADLSAWTEYIPYHFRPNYHGVGTCSMMPKEMGGVVDNAARVYGVQGLRVIDGSIPPTQMSSHVMTVFYAMALKISDAILEDYASMQ
modifications: heat-inactivated
B1: the “Reduction of Nicotine” value amounted to 0.1 mg/g.
